Laboratory results from patent US20260008803A1.

Key:
FcγRIIIa [1] = molecular target: FcγRIIIa (UniProt P08637); test: SPR (Biacore T200, single cycle kinetics, 25 C); antibody captured by anti-human Fab, FcγRIIIa as analyte; 1:1 Langmuir fit
FcγRIIIa [2] = molecular target: FcγRIIIa (UniProt P08637); test: SPR; fold improvement in binding avidity against commercial rituximab
FcγRIIIa [3] = molecular target: FcγRIIIa (UniProt P08637); test: SPR; fold improvement in binding avidity, commercial rituximab as the reference

Chain of FcγRIIIa (P08637 17-208 limits assumed): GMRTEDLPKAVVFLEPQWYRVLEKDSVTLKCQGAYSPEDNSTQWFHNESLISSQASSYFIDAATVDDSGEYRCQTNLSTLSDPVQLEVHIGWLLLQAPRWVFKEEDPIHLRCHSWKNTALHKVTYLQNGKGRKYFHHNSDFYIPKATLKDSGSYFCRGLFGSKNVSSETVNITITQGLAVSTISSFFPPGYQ

In the case of “Rituximab IgG1 homogeneous glycoform with α2,6-linked 3F^ax-Neu5Ac-terminated biantennary N-glycan (without core fucose) (antibody)”, the Kd (FcγRIIIa [1]) is reported as 8.18 nM, the koff (FcγRIIIa [1]) is reported as 0.002 s⁻¹ and the kon (FcγRIIIa [1]) is reported as 244000 M⁻¹ s⁻¹. It also gave a Fold (FcγRIIIa [2]) of 37.4 fold.

“Rituximab IgG1 homogeneous glycoform with α2,6-linked Neu5Ac-terminated biantennary N-glycan (G2S2, without core fucose) (antibody)” gave a Kd (FcγRIIIa [1]) of 7.67 nM, a koff (FcγRIIIa [1]) of 0.00206 s⁻¹ and a kon (FcγRIIIa [1]) of 268000 M⁻¹ s⁻¹. For the same substance, the Fold (FcγRIIIa [2]) was 39.9 fold.

Substance “Rituximab (commercial sample; Rituxan, Roche) (antibody)” has a Kd (FcγRIIIa [1]) of 306 nM, a koff (FcγRIIIa [1]) of 0.0705 s⁻¹ and a kon (FcγRIIIa [1]) of 231000 M⁻¹ s⁻¹. The Fold (FcγRIIIa [3]) was 1 fold.
